Experimental data published in patent publication US9745384B2, “Peptides useful for modulating histone demethylase function” (The Brigham and Women's Hospital, Inc., priority 2012, dated 2017).

Legend:
[1] = target: T1, LSD2 (Homo sapiens, UniProt Q8NB78); experiment: H3K4me2 peptide demethylation assay (MALDI-TOF); format: biochemical; conditions: shorter H3K4me2 peptide residues 1-15
T1 construct: 0.15 μM or 1.2 μM purified LSD2 (residues 51-822); His6 (cleaved yes); made in house; host or cells: Sf9 insect cells (baculovirus)
T1 sequence (Q8NB78 51-822): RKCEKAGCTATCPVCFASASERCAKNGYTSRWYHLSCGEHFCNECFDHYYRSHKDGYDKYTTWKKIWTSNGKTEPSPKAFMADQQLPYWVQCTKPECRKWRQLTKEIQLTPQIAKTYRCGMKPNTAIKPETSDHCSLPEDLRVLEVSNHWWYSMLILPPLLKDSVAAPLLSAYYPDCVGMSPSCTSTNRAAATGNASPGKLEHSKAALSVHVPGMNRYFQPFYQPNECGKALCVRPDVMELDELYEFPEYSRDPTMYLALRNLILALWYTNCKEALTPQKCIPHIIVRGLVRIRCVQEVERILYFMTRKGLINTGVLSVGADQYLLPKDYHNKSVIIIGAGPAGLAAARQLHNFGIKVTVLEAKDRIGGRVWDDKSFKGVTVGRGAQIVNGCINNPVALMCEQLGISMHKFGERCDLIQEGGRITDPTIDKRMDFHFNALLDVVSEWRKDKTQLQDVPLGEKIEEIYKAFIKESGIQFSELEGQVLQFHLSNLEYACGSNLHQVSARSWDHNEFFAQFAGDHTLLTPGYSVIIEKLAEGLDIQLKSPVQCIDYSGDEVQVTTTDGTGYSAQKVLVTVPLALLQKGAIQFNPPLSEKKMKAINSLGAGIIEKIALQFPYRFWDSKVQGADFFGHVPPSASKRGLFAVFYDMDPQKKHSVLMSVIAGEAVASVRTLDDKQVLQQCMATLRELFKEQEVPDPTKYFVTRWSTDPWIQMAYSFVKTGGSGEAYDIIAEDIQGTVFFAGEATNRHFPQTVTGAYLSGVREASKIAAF
Method: FIGS. 12A-12F depict analysis of LSD2 demethylation activity and mutational analysis. […] Demethylation products were analyzed by MALDI-TOF mass spectrometry. 0.15 μM LSD2 can efficiently demethylate the longer H3K4me2 peptide (1-21), but has no detectable activity on the shorter histone peptide (1-15), demethylation of which requires high concentration (1.2 μM) of LSD2. […] It indicates the importance of histone residue 16-21 to LSD2 enzymatic activity and NPAC cofactor activity, supporting our model that NPAC assists enzyme-substrate interactions by creating a new binding site for H3 L20 in the LSD2-NPAC complex. FIG. 12C depicts LSD2 demethylation and NPAC cofactor activity on longer H3K4me2 peptide (1-44). 2 μg H3K4me2 peptide (1-44) were incubated with 0.8 μg GST-LSD2 (1-822) and 2 μg wild-type or F217A full-length GST-NPAC proteins in 100 μl demethylation buffer (50 mM Tris-HCl pH 8.1, 1 mM NAD^+, 0.1 Unit formaldehyde dehydrogenase) at 30° C. for 2 hours. LSD2 alone can efficiently demethylate di-methyl H3K4 of the long peptides, converting large majority of the substrate to H3K4me1. Wild-type NPAC protein can efficiently stimulate LSD2 demethylation, producing unmethylated H3K4. F217A mutation impairs NPAC cofactor activity as expected, showing little stimulatory effect if any. To compare demethylation efficiency, 1.2 μg bio-H3K4me2 peptide (H3 residue 1-21, equal molar ratio to 2 ug H3K4me2 1-44 peptide in above assays) was demethylated by LSD2 under identical conditions (bottom panel). […] The cofactor activity of wild-type NPAC was readily detected under the same conditions. […] Importantly, the demethylation of nucleosomal H3K4me2 was much more efficient in the presence of wild-type NPAC under same conditions (comparing lane 3 verse 4, and 8 verse 9). It is noted that no obvious cofactor effect of F217A peptide or linker regions was detected in nucleosome and peptide demethylation assays (FIG. 6E and data not shown). FIG. 12F depicts Coomassie staining of NPAC proteins used in histone demethylase assays. FIG. 12F discloses “His6” as SEQ ID NO: 75.
Histone peptides are purchased from Millipore, or custom synthesized. The purity of all peptides are >95% as determined by HPLC and mass spectrometry. In vitro histone demethylase activity assays were performed as described (Shi et al., 2004). Briefly, purified LSD2 and NPAC derived peptides or proteins were incubated with 50 μM H3K4me2 peptides (residues 1-21) in 50 mM Tris-HCl, pH 8.5, 50 mM KCl, 5 mM MgCl2, 5% glycerol at 37° C. for 30 min. The products were desalted through a C18 Ziptip (Millipore) and analyzed on a MALDI-TOF micro MX mass spectrometer (ABI 4700, Applied Biosystems). The laser intensity was kept constant for all of the samples. All MS data were processed using Data Explorer 4.5 (Applied Biosystems). […]

[2] = tested on: nucleosomes purified from HeLa; experiment: Nucleosome pulldown by GST-NPAC proteins; format: binding
Method: Nucleosomes were purified from HeLa as previously described (Umlauf et al., 2004). To examine nucleosome binding selectivity of NPAC, 5 μg GST fusion protein bound to glutathione agarose were incubated with 20 μg nucleosomes overnight at 4° C. in nucleosome binding buffer (50 mM NaPO4 pH 7.4, 200 mM NaCl, 0.5% NP-40, 5% glycerol, 10 μM ZnSO4, 1 mM MgCl2, 1 mM DTT, 0.1 mM PMSF). After washing 4 times with the same buffer at 4° C., the beads were boiled in 1×SDS sample loading buffer and elute was resolved by 15% SDS-PAGE for immunoblot analysis or coomassie staining.
For free-DNA competition assays, human genomic DNA was purified from HeLa cells and fragmented to an average size around 300 bp by sonication. Equal amounts of GST-NPAC.d5 bound to glutathione beads were pre-incubated with 0, 5, 10, 25 μg genomic DNA fragments in nucleosome binding buffer for 30 minutes at room temperature, and equal amounts of nucleosomes were added and incubated overnight at 4° C. After extensive washing, GST-NPAC.d5 and bound nucleosomes were eluted by boiling in 1×SDS sample loading buffer, resolved by SDS-PAGE and stained with coomassie blue.

- Cofactor activity: stimulation of LSD2 demethylation of H3K4me2 peptide [1]: did not detect NPAC cofactor activity
- Nucleosome binding (GST-pulldown) [2]: binds strongly with purified nucleosomes
B1: NPAC: full-length human NPAC/GLYR1 (protein ID: Q49A26), recombinant, LSD2 cofactor (protein)
chain: MAAVSLRLGDLVWGKLGRYPPWPGKIVNPPKDLKKPRGKKCFFVKFFGTEDHAWIKVEQLKPYHAHKEEMIKINKGKRFQQAVDAVEEFLRRAKGKDQTSSHNSSDDKNRRNSSEERSRPNSGDEKRKLSLSEGKVKKNMGEGKKRVSSGSSERGSKSPLKRAQEQSPRKRGRPPKDEKDLTIPESSTVKGMMAGPMAAFKWQPTASEPVKDADPHFHHFLLSQTEKPAVCYQAITKKLKICEEETGSTSIQAADSTAVNGSITPTDKKIGFLGLGLMGSGIVSNLLKMGHTVTVWNRTAEKCDLFIQEGARLGRTPAEVVSTCDITFACVSDPKAAKDLVLGPSGVLQGIRPGKCYVDMSTVDADTVTELAQVIVSRGGRFLEAPVSGNQQLSNDGMLVILAAGDRGLYEDCSSCFQAMGKTSFFLGEVGNAAKMMLIVNMVQGSFMATIAEGLTLAHVTGQSQQTLLDILNQGQLASIFLDQKCQNILQGNFKPDFYLKYIQKDLRLAIALGDAVNHPTPMAAAANEVYKRAKALDQSDNDMSAVYRAYIH
